Source: patent EP2767548A2

Biological target: Human CD16 (biotinylated, Sino Biological Inc, cat#10389-H27H1-B) (human) (UniProt P08637)
Experiment: ELISA, biotinylated CD16 captured on neutravidin, anti-human Fab-HRP detection

Human CD16 (biotinylated, Sino Biological Inc, cat#10389-H27H1-B) (human), sequence (P08637 17-208): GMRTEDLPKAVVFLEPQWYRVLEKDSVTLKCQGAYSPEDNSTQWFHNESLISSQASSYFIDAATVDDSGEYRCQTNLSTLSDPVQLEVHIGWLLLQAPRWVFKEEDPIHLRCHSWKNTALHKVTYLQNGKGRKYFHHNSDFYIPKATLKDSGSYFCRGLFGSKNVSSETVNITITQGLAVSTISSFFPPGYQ

- EC50: 6.15 µg/mL
Substance: Synagis (antibody)
